Reference: the supplement of paper PMC9112550, “Optimization of the antimicrobial peptide Bac7 by deep mutational scanning” (BMC Biology, 2022)

tested on: Escherichia coli TOP10; experiment: shrunken log2 fold change of peptide-encoding DNA abundance (4.5 h post-induction vs induction); higher = less antimicrobial activity (less host growth inhibition); settings: time post-induction: 4.5 h; library: site-saturation at positions 5, 18, 19, 20
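Note: peptides expressed intracellularly from a pBAD plasmid library in pooled LB shake-flask culture, induced with 0.3% L-arabinose, DNA abundance read by NGS, three biological replicates, DESeq2 with apeglm shrinkage.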

| Sequence | shrunken log2 fold change |
| --- | --- |
| RRIRARPPRLPRPRPRPVHGPRP | 0.785 |
| RRIRCRPPRLPRPRPRPFKPPRP | -0.302 |
| RRIRQRPPRLPRPRPRPTANPRP | 0.197 |
| RRIRCRPPRLPRPRPRPLRWPRP | 0.613 |
| RRIRYRPPRLPRPRPRPDYGPRP | -0.205 |
| RRIRARPPRLPRPRPRPWFFPRP | 0.089 |
| RRIRIRPPRLPRPRPRPSRTPRP | -0.455 |
| RRIRGRPPRLPRPRPRPRHNPRP | 0.0863 |
| RRIRKRPPRLPRPRPRPIIKPRP | 0.232 |
| RRIRNRPPRLPRPRPRPWALPRP | -0.0675 |
| RRIRYRPPRLPRPRPRPVGAPRP | 0.252 |
| RRIRDRPPRLPRPRPRPRQPPRP | 0.252 |
| RRIRSRPPRLPRPRPRPWCSPRP | -0.296 |
| RRIRGRPPRLPRPRPRPGAPPRP | 1.29 |
| RRIRERPPRLPRPRPRPVSDPRP | -0.26 |
| RRIRTRPPRLPRPRPRPGDAPRP | 0.206 |
| RRIRFRPPRLPRPRPRPFHIPRP | -0.663 |
| RRIRTRPPRLPRPRPRPVATPRP | 0.299 |
| RRIRWRPPRLPRPRPRPKRWPRP | 0.441 |
| RRIRCRPPRLPRPRPRPRKLPRP | 0.0902 |
| RRIRWRPPRLPRPRPRPVHWPRP | 0.138 |
| RRIRERPPRLPRPRPRPPWKPRP | 0.0356 |
| RRIRYRPPRLPRPRPRPRKEPRP | 0.00543 |
| RRIRYRPPRLPRPRPRPEMLPRP | -0.0664 |
| RRIRVRPPRLPRPRPRPHQGPRP | 0.105 |

| Sequence | shrunken log2 fold change |
| --- | --- |
| RRIRVRPPRLPRPRPRPVQKPRP | 0.0709 |
| RRIRKRPPRLPRPRPRPMSVPRP | -0.39 |
| RRIRGRPPRLPRPRPRPRRHPRP | 0.612 |
| RRIRHRPPRLPRPRPRPYLGPRP | -0.403 |
| RRIRCRPPRLPRPRPRPNVTPRP | 0.632 |
| RRIRVRPPRLPRPRPRPREAPRP | 0.0545 |
| RRIRHRPPRLPRPRPRPQMIPRP | -0.139 |
| RRIRKRPPRLPRPRPRPFNCPRP | 0.0153 |
| RRIRSRPPRLPRPRPRPPGDPRP | 0.344 |
| RRIRWRPPRLPRPRPRPKQQPRP | -0.133 |
| RRIRFRPPRLPRPRPRPGTSPRP | -0.0716 |
| RRIRWRPPRLPRPRPRPWKHPRP | 0.0264 |
| RRIRGRPPRLPRPRPRPVEFPRP | 0.596 |
| RRIRARPPRLPRPRPRPETSPRP | 0.912 |
| RRIRDRPPRLPRPRPRPCPWPRP | 0.0761 |
| RRIRTRPPRLPRPRPRPCNVPRP | -0.00968 |
| RRIRWRPPRLPRPRPRPLGDPRP | 0.598 |
| RRIRTRPPRLPRPRPRPNNAPRP | -0.303 |
| RRIRPRPPRLPRPRPRPCYPPRP | -0.301 |
| RRIRCRPPRLPRPRPRPAEEPRP | -0.314 |
| RRIRFRPPRLPRPRPRPHTTPRP | -0.155 |
| RRIRIRPPRLPRPRPRPNESPRP | -0.243 |
| RRIRFRPPRLPRPRPRPSRGPRP | 0.485 |
| RRIRERPPRLPRPRPRPNNDPRP | -0.663 |
| RRIRPRPPRLPRPRPRPNPLPRP | 0.149 |

| Sequence | shrunken log2 fold change |
| --- | --- |
| RRIRWRPPRLPRPRPRPAAHPRP | 0.167 |
| RRIRRRPPRLPRPRPRPNLGPRP | 0.00298 |
| RRIRARPPRLPRPRPRPIDYPRP | -0.228 |
| RRIRFRPPRLPRPRPRPQDGPRP | 0.0293 |
| RRIRKRPPRLPRPRPRPPGQPRP | 1.25 |
| RRIRMRPPRLPRPRPRPSEDPRP | 0.974 |
| RRIRIRPPRLPRPRPRPLVKPRP | -0.0899 |
| RRIRNRPPRLPRPRPRPMTIPRP | -0.35 |
| RRIRCRPPRLPRPRPRPIANPRP | 0.0422 |
| RRIRCRPPRLPRPRPRPHGSPRP | -0.0281 |
| RRIRDRPPRLPRPRPRPLKRPRP | -0.0492 |
| RRIRLRPPRLPRPRPRPRADPRP | 2.32 |
| RRIRYRPPRLPRPRPRPYHNPRP | -0.525 |
| RRIRWRPPRLPRPRPRPEINPRP | 0.267 |
| RRIRERPPRLPRPRPRPIDLPRP | -0.219 |
| RRIRERPPRLPRPRPRPHSWPRP | -0.183 |
| RRIRMRPPRLPRPRPRPEQWPRP | 0.184 |
| RRIRGRPPRLPRPRPRPGNYPRP | -0.0899 |
| RRIRMRPPRLPRPRPRPRWFPRP | 0.717 |
| RRIRHRPPRLPRPRPRPYGWPRP | -0.145 |
| RRIRQRPPRLPRPRPRPQLWPRP | -0.135 |
| RRIRYRPPRLPRPRPRPKPDPRP | 0.0117 |
| RRIRERPPRLPRPRPRPGLKPRP | 0.131 |
| RRIRTRPPRLPRPRPRPQWKPRP | 0.0581 |
| RRIRDRPPRLPRPRPRPWTTPRP | -0.0204 |

| Sequence | shrunken log2 fold change |
| --- | --- |
| RRIRGRPPRLPRPRPRPADKPRP | 0.365 |
| RRIRLRPPRLPRPRPRPSPYPRP | -0.674 |
| RRIRCRPPRLPRPRPRPVVAPRP | 0.319 |
| RRIRTRPPRLPRPRPRPKESPRP | 0.0841 |
| RRIRGRPPRLPRPRPRPEFTPRP | 0.74 |
| RRIRFRPPRLPRPRPRPTGHPRP | -0.287 |
| RRIRGRPPRLPRPRPRPAVWPRP | 0.71 |
| RRIRQRPPRLPRPRPRPCNHPRP | 0.037 |
| RRIRHRPPRLPRPRPRPTDIPRP | -0.668 |
| RRIRVRPPRLPRPRPRPPNRPRP | 0.144 |
| RRIRPRPPRLPRPRPRPMVPPRP | 0.18 |
| RRIRWRPPRLPRPRPRPYKQPRP | -0.0587 |
| RRIRMRPPRLPRPRPRPHCGPRP | -0.033 |
| RRIRARPPRLPRPRPRPLIDPRP | 0.647 |
| RRIRARPPRLPRPRPRPSWAPRP | 0.106 |
| RRIRRRPPRLPRPRPRPNVCPRP | 0.0167 |
| RRIRERPPRLPRPRPRPNGGPRP | -0.0469 |
| RRIRPRPPRLPRPRPRPQAKPRP | 0.277 |
| RRIRRRPPRLPRPRPRPGVTPRP | 0.303 |
| RRIRHRPPRLPRPRPRPYNQPRP | -0.342 |
| RRIRQRPPRLPRPRPRPMQQPRP | -0.0642 |
| RRIRSRPPRLPRPRPRPVRQPRP | 0.19 |
| RRIRLRPPRLPRPRPRPTMYPRP | 0.163 |
| RRIRRRPPRLPRPRPRPNTIPRP | -0.372 |
| RRIRYRPPRLPRPRPRPHWTPRP | -0.0421 |

| Sequence | shrunken log2 fold change |
| --- | --- |
| RRIRLRPPRLPRPRPRPNPNPRP | 0.395 |
| RRIRRRPPRLPRPRPRPCRQPRP | 0.0284 |
| RRIRERPPRLPRPRPRPRFIPRP | -0.414 |
| RRIRFRPPRLPRPRPRPLEPPRP | -0.199 |
| RRIRLRPPRLPRPRPRPCIYPRP | -1.16 |
| RRIRLRPPRLPRPRPRPKAAPRP | 0.679 |
| RRIRKRPPRLPRPRPRPLEDPRP | -0.0129 |
| RRIRHRPPRLPRPRPRPFGEPRP | -0.0377 |
| RRIRCRPPRLPRPRPRPPITPRP | -0.286 |
| RRIRRRPPRLPRPRPRPSDIPRP | -1.08 |
| RRIRLRPPRLPRPRPRPDNRPRP | -0.0526 |
| RRIRARPPRLPRPRPRPVQPPRP | 0.392 |
| RRIRSRPPRLPRPRPRPPMLPRP | 0.0967 |
| RRIRSRPPRLPRPRPRPFGQPRP | -0.197 |
| RRIRQRPPRLPRPRPRPEGAPRP | 0.852 |
| RRIRQRPPRLPRPRPRPFMKPRP | -0.0158 |
| RRIRQRPPRLPRPRPRPPGMPRP | 0.256 |
| RRIRPRPPRLPRPRPRPNCNPRP | -0.518 |
| RRIRLRPPRLPRPRPRPGQWPRP | 0.17 |
| RRIRIRPPRLPRPRPRPWLGPRP | 0.0945 |
| RRIRIRPPRLPRPRPRPWEFPRP | -0.000856 |
| RRIRWRPPRLPRPRPRPTYAPRP | -0.0208 |
| RRIRIRPPRLPRPRPRPIRNPRP | -0.236 |
| RRIRERPPRLPRPRPRPIGVPRP | 0.0489 |
| RRIRQRPPRLPRPRPRPERKPRP | 0.0453 |

| Sequence | shrunken log2 fold change |
| --- | --- |
| RRIRSRPPRLPRPRPRPLISPRP | -0.173 |
| RRIRFRPPRLPRPRPRPCQLPRP | -0.938 |
| RRIRFRPPRLPRPRPRPAEAPRP | 0.254 |
| RRIRDRPPRLPRPRPRPMGNPRP | -0.107 |
| RRIRDRPPRLPRPRPRPSHHPRP | -0.344 |
| RRIRMRPPRLPRPRPRPSGNPRP | -0.14 |
| RRIRKRPPRLPRPRPRPLVQPRP | 0.459 |
| RRIRARPPRLPRPRPRPLMIPRP | -0.138 |
| RRIRRRPPRLPRPRPRPFLCPRP | 0.219 |
| RRIRKRPPRLPRPRPRPIRWPRP | 0.0019 |
| RRIRCRPPRLPRPRPRPHTNPRP | -0.564 |
| RRIRLRPPRLPRPRPRPDIKPRP | -0.145 |
| RRIRYRPPRLPRPRPRPLFLPRP | -0.171 |
| RRIRFRPPRLPRPRPRPKLIPRP | -0.565 |
| RRIRIRPPRLPRPRPRPIAGPRP | -0.017 |
| RRIRDRPPRLPRPRPRPDILPRP | 0.111 |
| RRIRMRPPRLPRPRPRPAYRPRP | 0.196 |
| RRIRKRPPRLPRPRPRPQAKPRP | -0.00692 |
| RRIRWRPPRLPRPRPRPWYIPRP | -0.172 |
| RRIRQRPPRLPRPRPRPMGYPRP | -0.655 |
| RRIRERPPRLPRPRPRPDLYPRP | -0.0156 |
| RRIRKRPPRLPRPRPRPHTFPRP | -0.309 |
| RRIRRRPPRLPRPRPRPLASPRP | 0.382 |
| RRIRQRPPRLPRPRPRPTKCPRP | 0.0325 |
| RRIRCRPPRLPRPRPRPEIVPRP | -0.221 |
